# Measured values published in patent US20150166647A1 (VLST, published 2015).
# B1: monoclonal antibody 18P7E (antibody, V domains shown)
# VH: QVQLKESGPGLVAPSQSLSITCTVSGFSLTGYGIHWVRQPPGKGLEWLGVIWPGGGTNYNSALMSRLNISKDNSKSQVFLKMNSLQTDDTAMYYCARGPLITTEVSMDYWGQGTSVTVSS
# VL: QAVVTQESALTTSPGETVTLTCRSNTGAVTTSNYANWVQEKPDHLFTGLIGGTNNRAPGVPARFSGSLIGDKAALTITGAQTEDEAIYFCALWYSNHWVFGGGTKLTVLG
# notes: also called MAb 18P7E
# Tests used:
# [1] = target: T1, mouse MIP-1α/CCL3 (mouse, UniProt P10855 24-92); test: MSD electrochemiluminescence, chemokine coated at 1 µg/mL
# T1 construct: also called muMIP-1α
# T1 sequence: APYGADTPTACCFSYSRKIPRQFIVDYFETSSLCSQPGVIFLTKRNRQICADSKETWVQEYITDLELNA
# [2] = target: T2, mouse MIP-1β/CCL4 (mouse, UniProt P14097 24-92); test: as above
# T2 construct: also called muMIP-1β
# T2 sequence: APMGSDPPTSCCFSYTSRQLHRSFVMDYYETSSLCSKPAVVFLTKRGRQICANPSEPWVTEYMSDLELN
# [3] = target: T3, mouse RANTES/CCL5 (mouse, UniProt P30882 24-91); test: as above
# T3 construct: also called muRANTES
# T3 sequence (P30882 24-91 limits assumed): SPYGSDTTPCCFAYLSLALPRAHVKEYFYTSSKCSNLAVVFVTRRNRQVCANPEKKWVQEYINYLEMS
# [4] = target: T4, I-309; test: MSD electrochemiluminescence assay; chemokine coated at 1 µg/mL, 18P7E as unquantitated hybridoma supernatant; background = BSA
# T4 construct: also called I-309/CCL1; CCL1
# T4 chemokine: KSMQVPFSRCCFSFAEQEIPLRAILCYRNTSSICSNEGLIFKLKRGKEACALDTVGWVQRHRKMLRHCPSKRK
# [5] = target: T5, IL-8; test: as above
# T5 construct: also called IL-8/CXCL8; CXCL8
# T5 sequence (chemokine, as listed by the source): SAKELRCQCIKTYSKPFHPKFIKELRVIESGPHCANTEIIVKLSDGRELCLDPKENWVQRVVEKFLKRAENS
# [6] = target: T6, SDF; test: as above
# T6 construct: also called SDF-1/CXCL12; CXCL12
# T6 sequence (chemokine, as listed by the source): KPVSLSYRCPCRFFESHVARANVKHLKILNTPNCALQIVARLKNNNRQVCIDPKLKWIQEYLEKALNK
# [7] = target: T7, Fractalkine; test: as above
# T7 construct: also called Fractalkine/CX3CL1; CX3CL1
# T7 chemokine: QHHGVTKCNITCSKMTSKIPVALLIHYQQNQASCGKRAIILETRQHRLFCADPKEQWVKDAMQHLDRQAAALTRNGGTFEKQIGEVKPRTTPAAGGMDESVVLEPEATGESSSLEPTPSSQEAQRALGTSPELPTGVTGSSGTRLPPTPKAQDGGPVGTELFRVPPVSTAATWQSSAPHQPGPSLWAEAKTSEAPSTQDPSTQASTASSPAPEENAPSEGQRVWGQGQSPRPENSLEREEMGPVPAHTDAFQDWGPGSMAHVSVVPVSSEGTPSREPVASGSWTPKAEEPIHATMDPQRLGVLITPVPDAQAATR
# [8] = target: T8, HCC-4; test: as above
# T8 construct: also called HCC-4/CCL16; CCL16
# T8 chemokine: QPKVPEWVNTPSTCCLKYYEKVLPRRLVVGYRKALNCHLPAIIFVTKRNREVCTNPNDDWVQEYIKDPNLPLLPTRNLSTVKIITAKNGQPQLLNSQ
# [9] = target: T9, MCP-2; test: as above
# T9 construct: also called MCP-2/CCL8; CCL8
# T9 chemokine: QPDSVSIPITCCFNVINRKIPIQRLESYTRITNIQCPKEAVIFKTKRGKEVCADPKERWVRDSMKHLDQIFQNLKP
# [10] = target: T10, MCP-3; test: as above
# T10 construct: also called MCP-3/CCL7; CCL7
# T10 sequence (chemokine, as listed by the source): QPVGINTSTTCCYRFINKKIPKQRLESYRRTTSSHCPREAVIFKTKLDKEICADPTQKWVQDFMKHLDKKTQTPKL
# [11] = target: T11, MCP-4; test: as above
# T11 construct: also called MCP-4/CCL13; CCL13
# T11 sequence (chemokine, as listed by the source): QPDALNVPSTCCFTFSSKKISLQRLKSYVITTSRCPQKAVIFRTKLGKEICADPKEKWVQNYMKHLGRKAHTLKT
# [12] = target: T12, Eotaxin; test: as above
# T12 construct: also called Eotaxin/CCL11; CCL11
# T12 sequence (chemokine, as listed by the source): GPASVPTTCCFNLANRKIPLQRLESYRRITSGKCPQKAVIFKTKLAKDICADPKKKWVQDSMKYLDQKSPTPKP
# [13] = target: T13, MDC; test: as above
# T13 construct: also called MDC/CCL22; CCL22
# T13 chemokine: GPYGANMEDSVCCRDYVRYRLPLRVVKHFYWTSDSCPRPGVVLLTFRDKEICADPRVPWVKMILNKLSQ
# [14] = target: T14, ELC; test: as above
# T14 construct: also called ELC/MIP-3β/CCL19; CCL19
# T14 chemokine: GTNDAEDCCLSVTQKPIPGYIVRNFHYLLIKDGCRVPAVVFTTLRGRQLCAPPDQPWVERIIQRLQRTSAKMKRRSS
# [15] = target: T15, human MPIF-1/CCL23 (human, UniProt P55773 46-120); test: as above
# T15 sequence: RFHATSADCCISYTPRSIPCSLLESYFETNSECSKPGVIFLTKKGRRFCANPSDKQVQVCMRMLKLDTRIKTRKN
# [16] = target: T16, human HCC-2/MIP-1δ/CCL15 (human, UniProt Q16663 46-113); test: as above
# T16 sequence: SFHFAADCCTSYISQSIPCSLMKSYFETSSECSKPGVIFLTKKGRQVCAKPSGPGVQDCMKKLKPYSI
# [17] = target: T17, human HCC-1/CCL14/CCL14a (human, UniProt Q16627 28-93); test: as above
# T17 sequence: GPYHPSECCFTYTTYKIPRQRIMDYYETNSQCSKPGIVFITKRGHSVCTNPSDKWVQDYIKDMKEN
# [18] = target: T18, human PARC/CCL18 (human, UniProt P55774 21-89); test: as above
# T18 sequence: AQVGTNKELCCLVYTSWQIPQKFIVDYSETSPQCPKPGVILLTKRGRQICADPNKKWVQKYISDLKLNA
# [19] = target: T19, human MCP-1/CCL2 (human, UniProt P13500 24-99); test: as above
# T19 construct: also called Biotin-MCP1
# T19 sequence (P13500 24-99 limits assumed): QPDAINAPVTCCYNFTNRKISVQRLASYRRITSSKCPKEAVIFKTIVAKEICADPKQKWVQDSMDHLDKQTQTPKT
binder,measurement,setting,value
B1,binding result,[1],no binding (tested: unquantitated hybridoma supernatant)
same,binding result,[2],no binding (tested: unquantitated hybridoma supernatant)
same,binding result,[3],no binding (tested: unquantitated hybridoma supernatant)
same,binding result,[4],no binding (tested: unquantitated hybridoma supernatant)
same,binding result,[5],no binding (tested: unquantitated hybridoma supernatant)
same,binding result,[6],no binding (tested: unquantitated hybridoma supernatant)
same,binding result,[7],no binding (tested: unquantitated hybridoma supernatant)
same,binding result,[8],no binding (tested: unquantitated hybridoma supernatant)
same,binding result,[9],no binding (tested: unquantitated hybridoma supernatant)
same,binding result,[10],no binding (tested: unquantitated hybridoma supernatant)
same,binding result,[11],no binding (tested: unquantitated hybridoma supernatant)
same,binding result,[12],no binding (tested: unquantitated hybridoma supernatant)
same,binding result,[13],no binding (tested: unquantitated hybridoma supernatant)
same,binding result,[14],no binding (tested: unquantitated hybridoma supernatant)
same,binding result,[15],no binding (tested: unquantitated hybridoma supernatant)
same,binding result,[16],no binding (tested: unquantitated hybridoma supernatant)
same,binding result,[17],no binding (tested: unquantitated hybridoma supernatant)
same,binding result,[18],no binding (tested: unquantitated hybridoma supernatant)
same,binding result,[19],no binding (tested: unquantitated hybridoma supernatant)
